CN113583125A (SUZHOU CENTERGENE PHARMACEUTICALS CO LTD, dated 2021)
Positions count from the first letter of the chain named.

Experiments:
[1] = biological target: T1, SEQ ID NO:1蛋白 (FSH、hCG、TSH、FSH-CTP和hLH共同α链) (Homo sapiens (Human), UniProt P01215 25-116); test: Phage ELISA screen, VHH displayed on phage
T1 construct: Immunogen for the alpaca and target of the Phage ELISA screen

hCG (人绒毛膜促性腺激素) = biological target: T2, hCG (人绒毛膜促性腺激素) (human, UniProt P0DN86 21-165); test: affinity chromatography, VHH coupled to CNBr-agarose, hCG from CHO supernatant, elution at pH 3, SDS-PAGE
T2 construct: In the resin experiments hCG comes from the supernatant of CHO cells that express it stably
T2 sequence (chain, as listed by the source, chain 1 of 2, other chains not shown): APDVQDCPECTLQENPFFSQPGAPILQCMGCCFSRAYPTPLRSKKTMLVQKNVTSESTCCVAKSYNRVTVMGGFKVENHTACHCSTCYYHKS

hLH (人促黄体生成素) = hLH (人促黄体生成素) (human, UniProt P01229 21-141); test: affinity purification on VHH-agarose (CNBr), SDS-PAGE of the eluate
Chain of hLH (人促黄体生成素) (chain, as listed by the source, chain 1 of 2): as the sequence (chain, as listed by the source, chain 1 of 2, other chains not shown) above
Chain of hLH (人促黄体生成素) (P01229 21-141, chain 2 of 2): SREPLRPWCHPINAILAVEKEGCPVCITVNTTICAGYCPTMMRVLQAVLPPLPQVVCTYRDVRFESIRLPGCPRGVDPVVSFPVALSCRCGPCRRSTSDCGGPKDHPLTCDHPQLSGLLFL

FSH (卵泡刺激素) [2] = biological target: T3, FSH (卵泡刺激素) (human, UniProt P01225 19-129); test: ELISA, plate coated with 10 ug/ml FSH, VHH from 1 mg/ml in 2-fold steps, detection with anti-6xHis-HRP
T3 construct: also called hFSH
T3 sequence (chain, as listed by the source, chain 1 of 2): as the sequence (chain, as listed by the source, chain 1 of 2, other chains not shown) above
T3 sequence (P01225 19-129, chain 2 of 2): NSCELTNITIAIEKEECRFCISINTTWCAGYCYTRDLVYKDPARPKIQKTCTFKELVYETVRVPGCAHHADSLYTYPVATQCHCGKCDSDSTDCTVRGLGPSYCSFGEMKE

FSH (卵泡刺激素) [3] = biological target: T3, FSH (卵泡刺激素); test: affinity purification on VHH-agarose (CNBr), SDS-PAGE of the eluate

T1 sequence (P01215 25-116 limits assumed): as the sequence (chain, as listed by the source, chain 1 of 2, other chains not shown) above

B1: SEQ ID NO:16蛋白 (VHH-sgs-HHHHHH) (VHH)
VHH: QVQVVESGGGLVQAGDSLRLSCAASGRTFSSYAMGWFRQAPGKEREAVAAITWSGGSTYYADSVKGRFTISRDNTKNTVYLQMNSLKPEDTAVYYCAARDRADGSSWWDYWGQGTQVTVSS
[1]
  binding result: binds
hCG (人绒毛膜促性腺激素)
  binding result: binds

B2: SEQ ID NO:18蛋白 (VHH-sgs-HHHHHH) (VHH)
VHH: B1 VHH with V4L, A14T, D16G, K43E, D62A, K65Q, T75A
[1]
  binding result: binds
hCG (人绒毛膜促性腺激素)
  binding result: binds

B3: SEQ ID NO:17蛋白 (VHH-sgs-HHHHHH) (VHH)
VHH: B1 VHH with V4L, A14T, D16G, K43E, I51L, T52S, D62A, K65Q, T75A
notes: In the resin experiments it is coupled to agarose
[1]
  binding result: binds
hLH (人促黄体生成素)
  binding result: binds
FSH (卵泡刺激素) [2]
  binding result: binds

B4: 1G9E (SEQ ID NO:12, VHH-sgs-HHHHHH) (VHH)
VHH: QVQLQESGGGLVQAGGSLRLSCAASGRTGSTYDMGWFRQAPGKERESVAAINWDSARTYYASSVRGRFTISRDNAKKTVYLQMNSLKPEDTAVYTCGAGEGGTWDSWGQGTQVTVSS
hCG (人绒毛膜促性腺激素)
  binding result: binds

B5: SEQ ID NO:11蛋白 (1G9E突变体, VHH-sgs-HHHHHH) (VHH)
VHH: B4 VHH with Y59H
notes: Expressed in E. coli BL21 Star(DE3) and purified on nickel; In the resin experiments it is coupled to agarose
FSH (卵泡刺激素) [3]
  binding result: binds
hLH (人促黄体生成素)
  binding result: binds
